In publication PMC3392108 (Human Molecular Genetics, 2012):
Where no end group is shown, it is not given here.

Key:
Assay in all cases: fluorescence polarisation
[1] = target: human mtHsp70 P509S PD variant (human, UniProt P38646 47-679, P509S)
[2] = target: human mtHsp70 R126W PD variant (human, UniProt P38646 47-679, R126W)
[3] = target: human mitochondrial Hsp70 (mtHsp70), wild-type (human, UniProt P38646 47-679)
Chain of human mitochondrial Hsp70 (mtHsp70), wild-type (P38646 47-679): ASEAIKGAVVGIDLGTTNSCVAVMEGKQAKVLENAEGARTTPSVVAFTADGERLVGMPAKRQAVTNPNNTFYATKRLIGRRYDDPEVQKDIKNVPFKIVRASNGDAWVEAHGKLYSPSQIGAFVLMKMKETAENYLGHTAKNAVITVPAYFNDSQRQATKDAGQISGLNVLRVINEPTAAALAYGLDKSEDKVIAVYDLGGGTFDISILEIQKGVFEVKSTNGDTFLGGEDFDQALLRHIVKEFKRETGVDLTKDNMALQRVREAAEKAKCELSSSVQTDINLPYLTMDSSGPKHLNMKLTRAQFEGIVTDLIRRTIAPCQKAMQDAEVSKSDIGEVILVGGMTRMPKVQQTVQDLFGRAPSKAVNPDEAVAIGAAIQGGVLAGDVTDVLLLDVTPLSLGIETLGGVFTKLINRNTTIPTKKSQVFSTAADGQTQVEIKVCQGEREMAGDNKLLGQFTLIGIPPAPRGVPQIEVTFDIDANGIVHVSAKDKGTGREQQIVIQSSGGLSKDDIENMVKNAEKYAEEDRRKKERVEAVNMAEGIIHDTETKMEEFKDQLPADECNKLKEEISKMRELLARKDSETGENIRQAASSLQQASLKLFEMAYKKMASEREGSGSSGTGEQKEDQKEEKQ

Chain of human mtHsp70 R126W PD variant (P38646 47-679 R126W): as the sequence (P38646 47-679) above, with R80W counted along it
Chain of human mtHsp70 P509S PD variant (P38646 47-679 P509S): as the sequence (P38646 47-679) above, with P463S counted along it

## ALLLSAPRR (also: fluorescein label, position not given here) [fluorescein-labeled P5 peptide (F-P5)]
[1]
  Kd: 15.7 ± 1.9 µM
[2]
  Kd: 13.6 ± 2.7 µM
[3]
  Kd: 15.6 ± 1.4 µM
